Measurements published in patent publication US8361484B2, “Polymer systems for lung volume reduction therapy” (Aeris Therapeutics, Inc., priority 2006, dated 2013).

Experiment: PVA hydrogel durability in phosphate buffered saline pH 7.4, integrity checked by periodic inversion
Type: physicochemical
Conditions: additive at 10%; 4% borate; PBS pH 7.4, room temperature
Description: The effect of the PVA (99% hydrolysis rate; average molecular weight 100K) concentration on gel durability was evaluated by first aliquotting 0.2 mL of a 4% borate solution into bottom of 14 mL tube. Then 1.8 mL of various PVA solutions of 2-5% concentrations were added by vigorous injection through a 3 mL syringe with an 18G needle. Three tubes were prepared for of each concentration and cured at room temperature for one hour to insure complete polymerization. 8 mL of phosphate buffered saline, pH 7.4, were added to each tube, covered and incubated at room temperature. The integrity of the gels was checked by periodic inversion.
The effect of additives on the durability of the PVA gel (99% hydrolysis rate; average molecular weight 100K) was evaluated by first aliquotting 0.2 mL of a 4% borate solution into bottom of 14 mL tube. Then 1.8 mL of PVA (5%) and additive containing solutions of 2-5% concentrations were added by vigorous injection through a 3 mL syringe with an 18G needle. Three tubes were prepared for of each concentration and cured at room temperature for one hour to insure complete polymerization. 8 mL of phosphate buffered saline, pH 7.4, were added to each tube, covered and incubated at room temperature. The integrity of the gels was checked by periodic inversion. […]

## albumin
  Effect of additive on durability of 5% PVA hydrogels: increase the durability
